Reference: publication PMC12098869, “An mRNA-display derived cyclic peptide scaffold reveals the substrate binding interactions of an N-terminal cysteine oxidase” (Nature Communications, 2025)
Where “and” joins values, the source holds several entries; their conditions need not be identical. Equal values may be shown once. Blank lines part the entries; values can stand above or below the molecule they belong to. Where a SMILES comes first, the peptide text is derived from it. Bridges are numbered along the chain shown (N, C = ends). Where no end group is shown, it is not given here. [ ]: non-standard residue; d: D form.

Assays:
[1] = target: T1, ADO-Y87F (Homo sapiens, UniProt Q96SZ5, Y87F); test: SPR binding of substrate peptides to ADO variant
T1 construct: Full-length human ADO (Uniprot ID: Q96SZ5) was cloned; made in house; host or cells: E. coli Rosetta2(DE3)
Text: (§1) Having verified the accuracy of the substrate analogue-bound crystal structures using MD simulations, key active site residues were mutated to assess their impact on binding and activity using SPR and LCMS. They were chosen based on their proximity to the substrate moieties and their conservation across species, including plants, where NCOs are called plant cysteine oxidases (PCOs; Fig. 5)[9],[10]. Two representative substrates, RGS5_2-15 and IL32_2-15 (a synthetic peptide corresponding to the methionine excised N-terminus of IL32, residues 2–15), were tested to compare interactions with different amino acid sequences.
(§2) SPR measurements were made using a Biacore T200 (Cytiva) instrument and data were analysed using the Biacore Insight Evaluation Software. Biotinylated-ADO was immobilised on a Biotin CAP chip (Cytiva) with a target density of ∼2500–3000 RU and peptide/protein substrates were injected over the chip. Experiments were conducted at 4 °C using both multi-cycle (fit using the equilibrium steady state affinity 1:1 binding model) and single-cycle kinetics mode (fit using a 1:1 binding model). A buffer comprising 20 mM HEPES pH 7.5, 500 mM NaCl, 10 mM DTT, and 0.1% (v/v) tween-20 was used as the running buffer at a flow rate of 50 μL/minute.
(§3) Supplementary Figure 20. SPR analysis of ADO variants with RGS5 peptide. (Left) Representative SPR sensorgram for the titration of RGS52-15 with amino acid substituted ADO. (Right) Fits of the equilibrium responses from the sensorgram in the left panels to a 1:1 binding model. The Kᴅ values are shown (Kᴅ given as the geometric mean of a minimum of three independent SPR measurements (n=3) with standard error). […] The […]
(§4) sensorgram is shown in red and the fit to the data is shown in black. The concentrations of RGS52-15 used in the titration are 25.6 nM, 64 nM, 160 nM, 400 nM, 1000 nM. The Kᴅ value is shown (Kᴅ given as the geometric mean of a minimum of three independent SPR measurements). Source data are provided as Source Data file.
(§5) (1 picture or pasted object on this page, not shown here)
(§6) Supplementary Figure 21. SPR analysis of ADO variants with IL32 peptide. (Left) Representative SPR sensorgram for the titration of IL322-15 with amino acid substituted ADO. (Right) Fits of the equilibrium responses from the sensorgram in the left […]
(§7) sensorgram is shown in red and the fit to the data is shown in black. The concentrations of IL322-15 used in the titration are 25.6 nM, 64 nM, 160 nM, 400 nM, 1000 nM. The Kᴅ value is shown (Kᴅ given as the geometric mean of a minimum of three independent

[2] = target: T2, ADO-I109A (Homo sapiens, UniProt Q96SZ5, I109A); test: SPR binding of substrate peptides to ADO variant
T2 construct: Full-length human ADO (Uniprot ID: Q96SZ5) was cloned; made in house; host or cells: E. coli Rosetta2(DE3)
Text: as §1, §2, §3, §4, §5, §6, §7

[3] = tested on: ADO-D206A; test: SPR binding of substrate peptides to ADO variant; design: species or system human
Text: as §1, §2
Supplementary Figure 20. SPR analysis of ADO variants with RGS5 peptide. […]

[4] = target: T3, ADO-D206N (Homo sapiens, UniProt Q96SZ5, D206N); test: SPR binding of substrate peptides (native and oxidised) to ADO variant; conditions: up to 100 μM
T3 construct: Full-length human ADO (Uniprot ID: Q96SZ5) was cloned; made in house; host or cells: E. coli Rosetta2(DE3)
T3 sequence (Q96SZ5 1-270 D206N): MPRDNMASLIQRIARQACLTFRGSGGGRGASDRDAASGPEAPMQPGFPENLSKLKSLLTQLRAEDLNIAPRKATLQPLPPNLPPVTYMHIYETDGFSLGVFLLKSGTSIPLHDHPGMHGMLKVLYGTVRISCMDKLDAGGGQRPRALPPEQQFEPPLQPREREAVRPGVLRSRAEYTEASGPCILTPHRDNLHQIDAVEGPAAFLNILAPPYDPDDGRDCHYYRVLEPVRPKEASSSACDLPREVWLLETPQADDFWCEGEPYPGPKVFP
Text: as §1
ADO cannot bind oxidised peptide or protein sequences (i.e. those bearing Nt-Cys sulfinic acid/sulfinate)[36]. To explore whether ADO-D206 plays a role in product release through protonation or charge repulsion, the binding of oxidised RGS5_2-15 and IL32_2-15 to ADO-D206N was monitored by SPR (Supplementary Fig. 22). […] Given its position in the active site (and the fact that many ADO-D206 variants bind substrate), this implies that ADO-D206 contributes to ADO activity through an interaction with O2 during turnover.
SPR measurements were made using a Biacore T200 (Cytiva) instrument and data were analysed using the Biacore Insight Evaluation Software. […]

[5] = target: ADO-D206N, N-terminally His-tagged and biotinylated (human) (UniProt Q96SZ5); test: SPR; biotinylated ADO or ADO mutant immobilised on a Biotin CAP chip (~2500-3000 RU), substrate peptide injected; Biacore T200, 4 °C; 20 mM HEPES pH 7.5, 500 mM NaCl, 10 mM DTT, 0.1% tween-20; 50 µL/minute; multi-cycle or single-cycle mode not given; each cell is one of three independent measurements
[6] = target: 2-aminoethanethiol dioxygenase (ADO), full-length human, N-terminally His-tagged and biotinylated (pQE80L-Navi-ADO) (human) (UniProt Q96SZ5); test: as above
[7] = target: ADO with a change in Y212 (ADO-Y212) (human) (UniProt Q96SZ5); test: SPR; biotinylated ADO (wild type or mutant) immobilised on a Biotin CAP chip, substrate peptides injected; 4 °C; 20 mM HEPES pH 7.5, 500 mM NaCl, 10 mM DTT, 0.1% tween-20; multi-cycle or single-cycle mode not given
[8] = target: ADO with a change in F101 (ADO-F101) (human) (UniProt Q96SZ5); test: as above
[9] = target: T4, ADO-I109A (human, UniProt Q96SZ5 1-270, I109A, biotin); test: as above; conditions: both partners purified
T4 construct: 2-aminoethanethiol dioxygenase (ADO), human, UniProt Q96SZ5, full length; Made by site-directed mutagenesis of the SPR construct; source: E. coli Rosetta2(DE3), purified (Ni-NTA, SEC); not shown: biotinylation tag (from the vector pQE80L-Navi), N-terminal, kept
T4 sequence (looked up): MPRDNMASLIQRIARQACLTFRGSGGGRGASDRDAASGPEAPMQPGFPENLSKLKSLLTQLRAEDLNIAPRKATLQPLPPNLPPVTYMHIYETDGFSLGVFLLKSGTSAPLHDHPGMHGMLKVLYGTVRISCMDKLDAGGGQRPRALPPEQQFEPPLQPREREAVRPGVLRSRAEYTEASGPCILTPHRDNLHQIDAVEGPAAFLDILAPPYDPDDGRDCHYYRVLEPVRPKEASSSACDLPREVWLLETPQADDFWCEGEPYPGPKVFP

[10] = target: T5, 2-aminoethanethiol dioxygenase (ADO), full-length human, N-terminally His-tagged and biotinylated … (human, UniProt Q96SZ5 1-270, biotin (biotinylated during expression, 0.2 mM biotin added)); test: SPR; single-cycle kinetics (1:1 binding model); biotinylated ADO immobilised on a Biotin CAP chip (~2500-3000 RU), cyclic peptide injected; Biacore T200, 4 °C; 20 mM HEPES pH 7.5, 500 mM NaCl, 10 mM DTT, 0.1% tween-20; 50 µL/minute; each cell is one of three independent measurements; conditions: both partners purified
T5 construct: 2-aminoethanethiol dioxygenase (ADO), human, UniProt Q96SZ5, full length; Immobilised through its biotin on a Biotin CAP chip for SPR; also called wild type ADO; Biotinylated-ADO; source: E. coli Rosetta2(DE3), purified (Ni-NTA, SEC); not shown: biotinylation tag (from the vector pQE80L-Navi), N-terminal, kept
T5 sequence (looked up): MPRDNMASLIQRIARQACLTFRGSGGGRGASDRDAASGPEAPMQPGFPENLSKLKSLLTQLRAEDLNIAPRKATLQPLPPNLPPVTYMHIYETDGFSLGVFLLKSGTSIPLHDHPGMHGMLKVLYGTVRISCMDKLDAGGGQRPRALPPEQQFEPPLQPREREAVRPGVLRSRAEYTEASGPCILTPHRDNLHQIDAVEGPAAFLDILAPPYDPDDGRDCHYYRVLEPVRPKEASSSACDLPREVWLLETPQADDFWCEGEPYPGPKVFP

[11] = target: 2-aminoethanethiol dioxygenase (ADO), wild type, biotinylated (pQE80L-Navi-ADO) (human); test: SPR; single-cycle kinetics (SCK), 1:1 binding model; biotinylated ADO or variant immobilised on a Biotin CAP chip, peptide injected at 25.6, 64, 160, 400, 1000 nM; 4 °C; 20 mM HEPES pH 7.5, 500 mM NaCl, 10 mM DTT, 0.1% (v/v) tween-20; 50 μL/minute

T1 sequence (Q96SZ5 whole entry Y87F): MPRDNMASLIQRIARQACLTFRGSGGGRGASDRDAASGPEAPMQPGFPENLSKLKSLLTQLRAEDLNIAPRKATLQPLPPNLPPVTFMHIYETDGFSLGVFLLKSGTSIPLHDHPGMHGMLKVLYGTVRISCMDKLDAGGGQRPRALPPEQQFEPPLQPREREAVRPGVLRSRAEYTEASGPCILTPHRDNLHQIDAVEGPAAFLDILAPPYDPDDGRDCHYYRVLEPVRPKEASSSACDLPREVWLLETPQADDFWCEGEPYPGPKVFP

Kd [5]: 149 nM and 155 nM and 152 nM
Kd [6]: 609 nM and 637 nM and 675 nM
Molecule: RGS5(2-15), synthetic peptide corresponding to the methionine excised N-terminus of RGS5, residues 2 to 15 (from UniProt O15539 2-15)

Kd [5]: 68.4 nM and 73.3 nM and 67.5 nM
Kd [6]: 372 nM and 449 nM and 573 nM
Molecule: IL32(2-15), synthetic peptide corresponding to the methionine excised N-terminus of IL32, residues 2-15 (from UniProt P24001 2-15)

fold increase in KD relative to wild type ADO [7]: < 113 fold
fold increase in KD relative to wild type ADO [8]: < 80 fold
Molecule: CKGLAALPHSCLER

fold increase in KD relative to wild type ADO [7]: < 113 fold
fold increase in KD relative to wild type ADO [8]: < 80 fold
Molecule: CFPKVLSDDMKKLK

fold increase in KD relative to wild type ADO [9]: 2 fold
B1: RGS5_(2-15), synthetic peptide corresponding to the methionine excised N-terminus of RGS5, residues 2 to 15 (peptide, UniProt O15539 2-15, looked up)
peptide: CKGLAALPHSCLER
notes: RGS5, human, residues 2 to 15 (methionine excised N-terminus); peptide synthesis is in the supplementary methods; source: synthetic peptide

fold increase in KD relative to wild type ADO [9]: 35 fold
B2: IL32_(2-15), synthetic peptide corresponding to the methionine excised N-terminus of IL32, residues 2-15 (peptide, UniProt P24001 2-15, looked up)
peptide: CFPKVLSDDMKKLK
notes: interleukin 32 (IL32), residues 2-15 (methionine excised N-terminus); peptide synthesis is in the supplementary methods; source: synthetic peptide

The remaining lines, values behind:

Molecule: CC(C)C[C@H](NC(=O)CNC(=O)[C@H](CCCCN)NC(=O)[C@@H](N)CS)C(=O)N[C@@H](C)C(=O)N[C@@H](C)C(=O)N[C@@H](CC(C)C)C(=O)N1CCC[C@H]1C(=O)N[C@@H](Cc1c[nH]cn1)C(=O)N[C@@H](CO)C(=O)N[C@@H](CS)C(=O)N[C@@H](CC(C)C)C(=O)N[C@@H](CCC(=O)O)C(=O)N[C@@H](CCCNC(=N)N)C(N)=O [14-mer RGS5] (H-CKGLAALPHSCLER-NH2; C-terminus assumed)
KD ([1]; replicate 1): 339 nM
KD ([1]; replicate 3): 339 nM
fold increase in KD relative to wild type ADO [2]: 2 fold
binding to ADO-D206A (in words) [3]: no binding

Molecule: oxidised RGS5_2-15: RGS5_2-15 bearing Nt-Cys sulfinic acid/sulfinate, obtained through pre-incubation with ADO ([Cys sulfinic acid]KGLAALPHSCLER)
binding of oxidised peptide to ADO-D206N (in words) [4]: No association was observed

Molecule: oxidised IL32_2-15: IL32_2-15 bearing Nt-Cys sulfinic acid/sulfinate, obtained through pre-incubation with ADO ([Cys sulfinic acid]FPKVLSDDMKKLK)
binding of oxidised peptide to ADO-D206N (in words) [4]: No association was observed

B3: CP6-L8K-Cys (peptide)
peptide: {CH2CO}-YIVKTFWK(Cys)GSHRQC
modifications: thioether N-14
notes: the substitution L8K is to be applied, Cys on the sidechain amine of K8; Branched peptide: the Cys is not in the main chain; source: synthetic peptide
Kd [10]: 11 nM and 13.1 nM and 13.7 nM
Kd [11]: 13 nM

B4: CP6-L8K-Ser (peptide)
peptide: {CH2CO}-YIVKTFWK(Ser)GSHRQC
modifications: thioether N-14
notes: the substitution L8K is to be applied, Ser on the sidechain amine of K8; Branched peptide: the Ser is not in the main chain; also called CP-L8K-Ser; source: synthetic peptide
Kd [10]: 17.2 nM and 20.6 nM and 26.8 nM
Kd [11]: 21 nM
